The values that follow come from patent publication US5506202A, “Insulin derivatives, a process for the preparation thereof, the use thereof, and a pharmaceutical formulation containing them” (Hoechst Aktiengesellschaft, priority 1988, dated 1996).

The conditions of data set [1]: unmodified native insulin or proinsulin, background; cited from earlier work.
Data set [2] is described as follows: isoelectric point (measured by isoelectric focusing). It counts as physicochemical. Conditions: insulin derivatives of the invention. The protocol: Characteristic of these insulin derivatives is an isoelectric point between 5.8 and 8.5 (measured by isoelectric focusing). The isoelectric point--which is shifted into the neutral range by comparison with the isoelectric point of the unmodified native insulin or proinsulin (at pH = 5.4)--is determined by the additional positive charge(s) located on the surface of the molecule as a result of the basic modification. This makes these insulin derivatives with a basic modification less soluble in the physiological neutral range than is, for example, native insulin or proinsulin, which are normally in dissolved form in the neutral range.
The isoelectric point of the insulin derivatives of the formula II is between 5.5 and 9.0 (measured by isoelectric focusing).

Like-named read-outs stand apart in the source and are kept apart here.

Take “native insulin: unmodified native insulin, comparison for isoelectric point and biological activity”: the isoelectric point in data set [1] is recorded as 5.4 pH. As to “proinsulin: proinsulin, comparison for isoelectric point”, in data set [1], the isoelectric point is given as 5.4 pH. For A0-Arg-de-Thr-B30-human insulin, the isoelectric point entry in data set [2] is “about 6.2”.
